Laboratory results published in the RNAGym collection of RNA variant scans (doi:10.7554/elife.90254).

B1: LINE1-full (parent)
chain: UACGUAGGUGGUUUUCCCCUGAUAGUGCUAAGGGGGCCUGGAAGUUUGGACUGGGCAGAGCUCAACACAGCGUGGCAAAGUGGCUGUGGCUAGACUGCCUCUCUGGAUUCCUCGUCACUCAGCAGGGCAUCUCUGAGAGAAAUGCC

Variants of: B1
Test: self-cleavage, relative activity (ratio to wild type); higher = more cleavage; in vitro, sequencing; the parent is a self-cleaving ribozyme

Row | Variant | self-cleavage
1 | UUCGUAGGUGGUUUUCCCCUGAUAGUGCUAAGGGGGCCUGGAAGUUUGGACUGGGCAGAGCUCAACACAGCGUGGCAAAGUGGCAGUGGCUAGACUGCCUCUCUGGAUUCCUCGUCACUCAGCAGGGCAUCUCUGAGAGAAAUGCC | 0.04
2 | UACGUAGGUGGUUUUCCCCUGAUAGUGCUAAGGGGGCCUGGAAGUUUGGACUGGGCAGAGCUCAACACAGCGUGGCAAAGUGGCUGUGGCUAGACUGCCUCUCUGGAUUCCUCGUCACUCGGCCGGGCAUCUCUGAGAGAAAUGCC | 0.32
3 | UACGCAGGUGGUUUUCCCCUGAUAGUGCUAAGGGGGCCUGGAAGUUUGGACUGGGCAGAGCUCAACACAGCGUGGCAAAGUGGCUGUGGCUAGACUGCCUCUCUGGAUUCCUCGACACUCAGCAGGGCAUCUCUGAGAGAAAUGCC | 0.91
4 | UACGUAGGUGGUUUUCCCCUGAUAGUGCUAAGGGGGCCUGGAAGUUUGGACUGGGCAGAGCCCAACACAGCGUGGCAAAGUGGCUGUGGCUAGACUGCCUCUCUGGAUUCCUCGUCACUCAGCAGGGCAUCUCUGAGUGAAAUGCC | 0.01
5 | UACGUAGAUGGUUUUCCCCUGAUAGUGCUAAGGGGGCCUGGAAGUUUGGACUGGGCAGAGCUCAACACAGCGUGGCAAAGUGGCUGUGGCUAGACUGCCUCUCUGGAUUCCUCGUCACUCAGCGGGGCAUCUCUGAGAGAAAUGCC | 1.04
6 | UACGUAGGUGGUUUUCCCCUGAUAGUGCUAAGGGGGCCUGGAAGUUUGGACUGGGCUGAGCUCAUCACAGCGUGGCAAAGUGGCUGUGGCUAGACUGCCUCUCUGGAUUCCUCGUCACUCAGCAGGGCAUCUCUGAGAGAAAUGCC | 0.06
7 | UACGUAGGUGGUUUUCCCCUGAUAGUGCUAAGGGGGCCUGGAAGUUUGGACUGGGCUGAGCUCAACACAGCGUGGCAAAGUGGCUGUGGCUAGACUGCCUCUCUGGAUCCCUCGUCACUCAGCAGGGCAUCUCUGAGAGAAAUGCC | 0.03
8 | UACGUAGGUGGUCUUCCCCUGAUAGUGCUAAGGGGGCCUGGAAGUUUGGACUGGGUAGAGCUCAACACAGCGUGGCAAAGUGGCUGUGGCUAGACUGCCUCUCUGGAUUCCUCGUCACUCAGCAGGGCAUCUCUGAGAGAAAUGCC | 0.15
9 | UACGUAGGUGGUUUUCCCCUGAUAGUGCUAAGGGGGCCUGGAAGUUUGGACUGGGCAGGGCUCAACACAGCGUGGCAAAGUGGCUGUGGCCAGACUGCCUCUCUGGAUUCCUCGUCACUCAGCAGGGCAUCUCUGAGAGAAAUGCC | 0.11
10 | CACGUAGGUGGUUUUCCCCUGAUAGUGCUAAGGGGGCCUGGAAGUUUGGACUGGGCAGAGCUCAACACGGCGUGGCAAAGUGGCUGUGGCUAGACUGCCUCUCUGGAUUCCUCGUCACUCAGCAGGGCAUCUCUGAGAGAAAUGCC | 0.42
11 | UACGUAGGUGGUUUUCCCCUGAUAGUGCUAAGGGGGCCUGGAAGUUUGGACUGGGCAGAGCUCAACACAGCGUGGCAAAGUGGCUGUGGCUAGACUGCCUCCCUGGAUUCCUCGUCACUCAGCAGGGCAUCACUGAGAGAAAUGCC | 1.34
12 | UACGUAGGUGGUUUUCCCCUAAUAGUGCUAAGGGGGCCUGGAAGUUUGGACUGGGCAGAGCUCAACACAGCGUGGCAGAGUGGCUGUGGCUAGACUGCCUCUCUGGAUUCCUCGUCACUCAGCAGGGCAUCUCUGAGAGAAAUGCC | 1.31
13 | UACGUAGGUGGUUUUCCCCUGAUAGUGCUAAGGGGGCCUGGAAGUUUGGACUGGGCAGAGCUCAACACAGCGUGGCAAAGUGGCUGUGGCUAGACUGCCUCUCUGAACUCCUCGUCACUCAGCAGGGCAUCUCUGAGAGAAAUGCC | 1.61
14 | UGCGUAGGUGGUUUUCCCCUGAUAGUGCUAAGGGGGCCUGGAAGUUUGGACUGGGCAGAGCUCAACACAGCGUGGCAAAGUGGCUGUGGCUAGACUGCCUCUCUGGAUUCCUCGUCACUCAGCAGGGCAUCUCUGAGAGAAAUACC | 0.86
15 | UACGUAGGUGGUUUUCCCCUGAUAGUGCUAAGGGGGCCUGGAAGUUUGGACUGGGCAGAGCUCAACACAGCGUGGCAAAGUGGCUGUGGCUUGACUGCCUCUCUGGAAUCCUCGUCACUCAGCAGGGCAUCUCUGAGAGAAAUGCC | 0.6
16 | UACGUAGGUGGUUUUCCCCUGAUAGUGCUAAGGGGGCCUGGAAGUUUGGACCGGGCAGAGCUCAACACAGCGUGACAAAGUGGCUGUGGCUAGACUGCCUCUCUGGAUUCCUCGUCACUCAGCAGGGCAUCUCUGAGAGAAAUGCC | 0.9
17 | UACGUAGGUGGUUUUCCCCUGAUAGUGCUAAGGGGGCCUGGAAGUUUGGACUGGGCAGAGCUCAACACAGCGUGACAAAGUGGCUGCGGCUAGACUGCCUCUCUGGAUUCCUCGUCACUCAGCAGGGCAUCUCUGAGAGAAAUGCC | 0.12
18 | UACGUAGGUGGUUUUCCCCUGAUAGUGCUAAGGGGGCCUGGAAGUCUGGACUGGGCAGAGCUCAACACAGCGUGGCAAAGUGGCUGUGGCUAGACCGCCUCUCUGGAUUCCUCGUCACUCAGCAGGGCAUCUCUGAGAGAAAUGCC | 0.3
19 | UACGUAGGUGGGUUUCCCCUAAUAGUGCUAAGGGGGCCUGGAAGUUUGGACUGGGCAGAGCUCAACACAGCGUGGCAAAGUGGCUGUGGCUAGACUGCCUCUCUGGAUUCCUCGUCACUCAGCAGGGCAUCUCUGAGAGAAAUGCC | 1.19
20 | UACGUAGGUGGUUUUCCCCUGAUAGUGCUAAGGGGGCCUGGAAGUUUGGACUGGGCAGAGCUCAACACAGCGUGGCAAAGUGGCUGUGGCUAGACUGCCUCUCUGGGUUCCUCGUCACUCAGCAGGGCAUCCCUGAGAGAAAUGCC | 1.62

Row | Variant | self-cleavage
21 | UACGUAGGUGGUUUUCCCCUGAUAGUGCUAAGGGGGCCUGGAAGUUUGGACUGGGCAGAGCUCAACACAGCGUAGCAAAGUGGCUGUGGCUAGACUGCCUCGCUGGAUUCCUCGUCACUCAGCAGGGCAUCUCUGAGAGAAAUGCC | 0.56
22 | UACGUAGGUGGUUUUCCCCUGAUAGUGCUAAGGGGGCCUGGAAGUUUGGACUGGGCAGAGCUCAACACAGCGUGGCAAAGUGGCUGUGGCUAGACUGCCUCUCUGGAUUCCUCGUCACUCAGCAGGGCGUCACUGAGAGAAAUGCC | 1.54
23 | UACGUAGGUGGUUUUCCCCUGAUAGUGCUAAGGGGGCCUGGAAGUUUGGACUGGGCAGAGCUCAACACAGCGUGGAAAAGUGGCUGUGGCUAGACUGCCUCUCUGGAUUCCUCGUCACUCAGCAGGGCAUCUCUGAGAGAAGUGCC | 1.87
24 | UACGUAGGUGGUUUUCCCCUGAUAGUGCUAAGGGGGCCUGGAAGUUUGGCCUGGGCAGAGCUCAACACAGCGUGGCAAAGUGGCUGUGGCUAGGCUGCCUCUCUGGAUUCCUCGUCACUCAGCAGGGCAUCUCUGAGAGAAAUGCC | 0
25 | UACGUAGGUGGUUUUCCCCUGAUAGUGCUAAGGGGGCCCGGAAGUUUGGACUGGGCAGAGCUCAACACAGCGUGGCAAAGUGGCUGUGGCUAGACUGCCUCUCUGGAUUCCUCAUCACUCAGCAGGGCAUCUCUGAGAGAAAUGCC | 1.04
26 | UACGUAGGUGGUUUUCCCCUGAUAGUGCUAAGGGGGCCUGGAAGUUUGGACUGGGCAGAGCUCAACACAGCGUGGCAAAGUGGCUGUGGCUAGACUGCCUCUCUGGAUUCCUCGUCACUCAGCUGGGCAUCUCUGAGAGAUAUGCC | 1.27
27 | UACGUAGGUGGUUUUCCCCUGAUAGUGCUAAGGGGGCCUGGAAGUUUGGACUGGGCAGAGCUCAACACAGCGUGGCAAAGUGGCUGUGGCUAGACUGUCUCUCUGGAUUCCUCGUCACUCAGCAGGGCAUCUCUGAGAGAAAUGCC | 0.4
28 | UACGUAGGUGGUUUUCCCCUGAUAGUGCUAAGGGGGCCUGGAAGUUUGGACUGGGCAGAGCUCAACACAGCGUGGCAAAGUGGCUGUGGCUGGACUGCCUCUCUGGAUUCCUCGUCACUCAGCAGGGCAUCCCUGAGAGAAAUGCC | 0.05
29 | UACGUAGGUGGUUUUCCCCUGAUAGUGUUAAGGGGGCCUGGAAGUUUGGACUGAGCAGAGCUCAACACAGCGUGGCAAAGUGGCUGUGGCUAGACUGCCUCUCUGGAUUCCUCGUCACUCAGCAGGGCAUCUCUGAGAGAAAUGCC | 0.65
30 | UACGUAGGCGGUUUUCCCCUGAUAGUGCUAAGGGGGCCUGGAAGUUUGGACUGGGCAGAGCUCAACACAGCGUGGCAAAGUGGCAGUGGCUAGACUGCCUCUCUGGAUUCCUCGUCACUCAGCAGGGCAUCUCUGAGAGAAAUGCC | 0.17
31 | UACGUAGGUGGUUUUCCCCUGAUAAUGCUAAGGGGGCCUGGAAGUUUGGACUGGGCAGGGCUCAACACAGCGUGGCAAAGUGGCUGUGGCUAGACUGCCUCUCUGGAUUCCUCGUCACUCAGCAGGGCAUCUCUGAGAGAAAUGCC | 0.09
32 | UACGUAGGUGGUUUUCCCCUGAUAGUGCUAAGGGGGCCUGGAAGUUUGGACUGGGCAGAGCUCAACACAGCGUGGCAAAGUGGCUGUGGCUAGACUGCCUCACUGGAUUCCUCGUCACUCAGCAGGACAUCUCUGAGAGAAAUGCC | 1.08
33 | UACGUAGGUGGUUUUCCCCUGAUAGUGCUAAGGGGGCCUGGAAGUUUGGACUGGGCAGAGCUCAACACAGCGUGGCAAAGUGGCUGUGGCUAGACUGCCUCUCUGGAUUCCUCGACACUCAGCAGGGCACCUCUGAGAGAAAUGCC | 1.62
34 | UACGUAGGUGGUUUUCCCCUGAUAGUGCUAAGGGGGCCUGGAAGUUUGGACUGGGCAGAGCUCAACACAGCGUGGCAAAGUGGCUGUGGCUAGACAGCCUCUCUGGAUUCCUCGUCACUCAGCAGGGCAUCUCUGAGAGAAACGCC | 0.06
35 | UACGUAGGUGGUUUUCCCCUGAUAGUGCUAAGGGGGCCUGGAAGUUUGGACUGGGCAGAGCUCAACACAGCGUUGCAAAGUGGCUGUGGCUAGACUGCCUCUCUGGAUUCCUCGUCACUCUGCAGGGCAUCUCUGAGAGAAAUGCC | 1.02
36 | UACGUAGGUGGUUUUCCCCUGAUAGUGCUAAGGGGGCCUGGAAGUUUGGACUGGGCAGAGCUCAACACAGCGAGGCAAAGUGGCUGUGGCUAGACUGCCUCUCUGGACUCCUCGUCACUCAGCAGGGCAUCUCUGAGAGAAAUGCC | 2.23
37 | UACGUAGGUGGUUUUCCCCUGAUAGUGCUAAGGGGGCCUGGAAGUUUGGACUGGGCAGAGCUCAACACAGCGUGGCAAAGUGGCUGUGGCUAGACUGCCUCACUGGAUUCCUCGUCACUCAGCAGGGCAUCUCAGAGAGAAAUGCC | 1.06
38 | UACGUAGGUGGUCUUCCCCUGAUAGUGCUAAGGGGCCCUGGAAGUUUGGACUGGGCAGAGCUCAACACAGCGUGGCAAAGUGGCUGUGGCUAGACUGCCUCUCUGGAUUCCUCGUCACUCAGCAGGGCAUCUCUGAGAGAAAUGCC | 0.96
39 | UACGUAGGUGGUUUUCCCCUGAUAGUGCUAAGGGGGCCUGGGAGCUUGGACUGGGCAGAGCUCAACACAGCGUGGCAAAGUGGCUGUGGCUAGACUGCCUCUCUGGAUUCCUCGUCACUCAGCAGGGCAUCUCUGAGAGAAAUGCC | 1.2
